US20030040606A1 (SKYTECH TECHNOLOGY, published 2003)

Target: T1, CD22 on Raji cells (UniProt P20273 20-847, limits assumed)
T1 construct: whole, on cells
T1 sequence (looked up): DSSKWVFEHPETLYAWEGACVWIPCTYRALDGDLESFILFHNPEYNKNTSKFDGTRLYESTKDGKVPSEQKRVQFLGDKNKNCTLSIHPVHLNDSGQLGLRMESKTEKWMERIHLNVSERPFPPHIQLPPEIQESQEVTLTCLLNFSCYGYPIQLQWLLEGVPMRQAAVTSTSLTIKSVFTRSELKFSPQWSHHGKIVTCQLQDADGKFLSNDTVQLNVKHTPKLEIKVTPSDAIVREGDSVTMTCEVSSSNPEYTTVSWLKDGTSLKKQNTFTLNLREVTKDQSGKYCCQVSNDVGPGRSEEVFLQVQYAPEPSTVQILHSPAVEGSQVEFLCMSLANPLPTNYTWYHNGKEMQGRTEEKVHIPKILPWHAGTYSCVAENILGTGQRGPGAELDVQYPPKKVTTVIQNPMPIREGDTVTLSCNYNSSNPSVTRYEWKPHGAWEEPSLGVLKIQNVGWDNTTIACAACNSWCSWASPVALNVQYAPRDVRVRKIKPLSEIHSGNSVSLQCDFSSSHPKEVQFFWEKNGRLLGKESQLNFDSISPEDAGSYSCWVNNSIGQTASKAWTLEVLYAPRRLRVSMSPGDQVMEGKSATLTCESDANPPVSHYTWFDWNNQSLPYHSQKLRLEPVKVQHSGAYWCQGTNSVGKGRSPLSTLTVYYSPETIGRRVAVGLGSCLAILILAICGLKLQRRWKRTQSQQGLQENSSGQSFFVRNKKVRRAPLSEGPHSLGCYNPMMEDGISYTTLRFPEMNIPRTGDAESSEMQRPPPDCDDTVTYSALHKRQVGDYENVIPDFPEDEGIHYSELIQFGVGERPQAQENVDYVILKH
Assay: flow cytometry on Raji cells, 1 ug antibody, FITC goat anti-human IgG1 Fc detection
Protocol: The mixtures were incubated for 30 minutes at 4° C. and washed three times with PBS to remove unbound antibodies. The binding levels of the antibodies to Raji cells were assessed by the addition of a 20x diluted FITC-labeled, goat anti-human IgG1, Fc fragment-specific antibodies (Jackson ImmunoResearch, West Grove, Pa.) in a final volume of 100 μl in PBS-FA, and incubating for 30 minutes at 4° C.

B1: FR-patched anti-CD22 antibody hpRFB4 (antibody, human IgG1, V domains shown)
VH: EVQLLESGGGLVQPGGSLRLSCAASGFSFSIYDMSWVRQAPGKGLEWVAYISSGGGTTYYPDTVKGRFTISRDNAKNSLYLQMNSLRVEDTALYYCARHSGYGSSYGVLFAYWGQGTLVTVSS
VL: DIQMTQSPSSLSASVGDRVTISCRASQDISNYLNWYQQKPGKAPKLLIYYTSILHSGVPSRFSGSGSGTEFTLTISSLQPEDFATYFCQQGNTLPWTFGGGTKVEIK
notes: Expressed in Sp2/0 cells with a human IgG1 heavy chain constant region and a human kappa light chain constant region (vectors hpRFB4pSMh and hpRFB4pSMk); protein A purified; also called FR-patched antibody; FR-patched RFB4
binding result: binds
